1 molecule from PMC7987032 (medRxiv, 2021) can be followed below.

This experiment concerns the target SARS-CoV-2 RBD (SARS-CoV-2 (Wuhan-Hu-1), UniProt P0DTC2). The experiment in a line: BLI. (In general: BLI is a label-free optical method that tracks binding on a fibre tip over time.)

B1: CV2-75 (antibody, V domains shown)
VH: QVQLQESGPGLVKPSETLSLTCTVSGGSISSYYWSWIRQPPGKGLEWIGYVYYSGSTNYNPSLKSRVTISVDTSKNEFSLKLSSVTAADTAVYYCASSQRPDGNLYYFDYWGQGTLVTVSS
VL: SYVLTQPPSVSVAPGQTARITCGGNNIGSKTVHWYQQKPGQAPVLVVYDDSDRPSGIPERFSGSNSGNTATLTISRVEAGDEADYYCQVWDSSSDHYVFGTGTKVTVL
Turning to B1, the binding result is listed as “binds”.
